We go through two sequences from patent publication US20210252159A1, “CONJUGATES OF CARTILAGE-HOMING PEPTIDES” (priority 2018, published 2021).

Data set [1] can be described thus: Comparison of joint retention time among radiolabeled peptides (QWBA, knee and IVD). The data set is classed as in vivo. As to conditions: for joint retention: SEQ ID NO: 105 57-60 nmol, SEQ ID NO: 103 130 nmol, SEQ ID NO: 184 150 nmol. Further details: Peptide Signal Retention in Knee / Peptide Signal Retention in IVD: unit not given here. On the procedure: Frozen carcasses were allowed to off gas hexane overnight at −20° and then embedded in chilled 2% carboxymethylcellulose (Sigma Aldrich) and sectioned sagittally at a thickness of 40 μm on an H/I Bright 8250 Cryostat (Hacker Instruments). Radioactive control guides were drilled into each block to verify even cutting depth along the length of the section. The radioactive guide consisted of ^14C-Glycine (American Radiolabeled Chemicals, “ARC”) at 0.5 uCi/ml in 0.5% BSA (Sigma Aldrich) in PBS. Sections were collected onto 4-inch wide tape (Scotch 821, ULINE) at 2-4 depths to sample approximately 30 tissues with particular focus on the knees and spine. Collected sections were freeze dried in the cryostat for 48-72 hours then mounted on sturdy paper and covered with a single protective layer of cellophane (Reynolds Food Service Film). Mounted sections were exposed to phosphor imager plates (Raytest) along with a radioactive standard Curve (1465-PL, ARC) for 7-days, scanned on a Raytest CR-35 at “25 μm sensitive” setting.
Quantification of the radioactivity detected in WBA samples was evaluated by measuring the pixel density/mm^2 (“SI”: Signal Intensity/Area−background) using AIDA Image Analyzer v 5.1 Whole Body Autoradiography Professional software (Raytest). Regions of interest (ROIs) were drawn manually around the entire visible tissue, comparing the sectioned sample to the autoradiogram. For quantification, all visible knee or IVD (intervertebral disc) tissues for one rodent across all collected sections were measured and averaged together to generate one knee or IVD value per animal. Typically were sampled 1-2 knee values (from femoral and tibial cartilage) per 1-2 sections per animal and 3-10 IVD per 1-2 sections per animal. To collect quantified values for other tissues, ROIs were drawn around blood in the heart ventricle, spinotrapezius muscle, the liver, or the kidney (including cortex and medulla) in all sections in which the tissue was observed and then averaged to yield one value per tissue per animal.
Data were presented as nmol of compound per gram of tissue. The commercial standard strips co-exposed with each WBA sample set were calibrated so that a known amount of radioactive counts per minute (CPM) per gram of tissue, determined by liquid scintillation counting (LSC), corresponded to the measured WBA SI at 11 standard strip concentration data points. The regression line of the log 10 transformed WBA signal intensity plotted against the log 10 transformed CPM/g gave a linear range of 1×10^5 to 7.5×10^7 WBA SI, corresponding to 6.3 nCi/g to 3.3 μCi/g. The log 10 concentration of radioactivity in each tissue (CPM/g) was interpolated from the standard curve, converted to linear values, and translated from CPM/g to uCi/g by interpolation against an LSC CPM to μCi standard curve. Uptake (nmol of compound/g of tissue) was determined by dividing the μCi/g tissue by the μCi/nmol specific activity of the peptide.
Peptide(SEQ ID NO: 105) was dosed at 57-60 nmol. Peptide(SEQ ID NO: 103) was dosed at 130 nmol. Peptide(SEQ ID NO: 184) was dosed at 150 nmol. […] It should be noted that detection of retention is based on an assay that detects radiolabeling of the N-terminus of each of the tested conjugates, thus decrease in signal over time may be due not only to peptide diffusion back out of the cartilage but also aminopeptidase-mediated removal of N-terminal amino acid, general peptide cleavage, or other mechanisms. Results as measured by QWBA methods described herein are shown in Tables 6 and 7 below and FIG. 11.

Data set [2] can be described thus: Biodistribution and pharmacokinetics of ^14C-labeled peptides in knee and IVD (QWBA). The data set is classed as in vivo, athymic nude mice. To be noted: for levels in knee and IVD compared with peptide(SEQ ID NO: 105): After 24 hours. On the procedure:
Synthetic peptides were radiolabeled by reductive methylation of the N-terminus with ^14C formaldehyde. 2 mice per time point were injected IV with 12.4 μCi of peptide (approximately 100 nmol or 18 mg/kg) and then euthanized at 0.08, 0.5, 1, 3, 8, 24, 48, 72, or 96 hours, followed by quantitative whole body autoradiography analysis.
To that end, the biodistribution pharmacokinetics of ^14C-labeled peptides ^14C-peptide(SEQ ID NO: 105), ^14C-peptide(SEQ ID NO: 103), and ^14C-peptide(SEQ ID NO: 184) to the knee (FIG. 19A and FIG. 19B) and intraverterbral discs (IVD, FIG. 19C and FIG. 19D) was assessed in mice (FIG. 19). Tissue levels were quantified by whole body autoradiography of peptides that had been radiolabeled by reductive methylation of the N-terminus. ^14C-peptide(SEQ ID NO: 105) and ^14C-peptide(SEQ ID NO: 103) both peaked in knee and IVD around 1-3 hours whereas ^14C-peptide(SEQ ID NO: 184) peaked later at 8 hours. […] All peptides still had observable signal at the last time point of 96 hours. […] As the peptide levels are based on the radiolabel attached to the N-terminus of the peptide, the decrease in signal with time may be due to aminopeptidase activity on the N-terminus of the peptides (which would not be relevant on PDC conjugates, where the drug linker is attached to the N-terminus), due to peptide diffusion back out of the cartilage, or due to general peptide backbone cleavage. For example, higher sustained levels of peptide in the cartilage may be desirable if drug cleavage has a slower pharmacokinetics, and if the peptide-drug conjugate is not saturating peptide binding sites in the cartilage when using repeat dosing. As another example, an earlier tmax in cartilage may be desirable to minimize premature cleavage of a conjugated drug in serum.

No end group written: not given here.

As for “GSGDCLPHLRRCRENNDCCSRRCRRRGANPERRCR (not fully specified (N-terminus, bridges); cysteine pairing not given here) [peptide(SEQ ID NO: 184), cartilage-homing cystine-dense peptide; biodistribution with form ^14C-methylated on the N-terminus]”, the “Peptide Signal Retention in IVD” value in data set [1] (0.08 Hours) worked out at 53.02; in data set [1] (0.5 Hours), 49.70; in data set [1] (1 Hours), 100.00; in data set [1] (3 Hours) it was 238.11; in data set [1] (8 Hours), 119.97; in data set [1] (24 Hours), 64.00. For the same sequence, the “Peptide Signal Retention in IVD” value is listed as 49.99 in data set [1] (48 Hours), 52.20 in data set [1] (72 Hours) and 36.54 in data set [1] (96 Hours). Further, the “Peptide Signal Retention in Knee” value is listed as 96.94 in data set [1] (0.08 Hours); 69.85 in data set [1] (0.5 Hours); 100.00 in data set [1] (1 Hours); 158.43 in data set [1] (3 Hours); 111.32 in data set [1] (8 Hours); 57.81 in data set [1] (24 Hours). The “Peptide Signal Retention in Knee” value in data set [1] (48 Hours) was determined as 50.44; in data set [1] (72 Hours), 28.30; in data set [1] (96 Hours), 11.84. For the same sequence, the joint retention result in data set [1] was “Longer joint retention”. Moreover, the “levels in knee and IVD compared with peptide(SEQ ID NO: 105)” value in data set [2] was “substantially higher levels”. The “time of peak in knee and IVD” value in data set [2] (mice, approximately 100 nmol IV, QWBA) is 8 h.
Take “GSSERDCIRHLQRCRENRDCCSRRCSRRGTNPERRCR (not fully specified (N-terminus, bridges); cysteine pairing not given here) [peptide(SEQ ID NO: 103), cartilage-homing cystine-dense peptide; biodistribution with form ^14C-methylated on the N-terminus]”: the “Peptide Signal Retention in IVD” value in data set [1] (0.08 Hours) is 59.15; in data set [1] (0.5 Hours) it was 76.62; in data set [1] (1 Hours) it was 100.00; in data set [1] (3 Hours), 113.18; in data set [1] (8 Hours), 107.52; in data set [1] (24 Hours), 50.75. Also, the “Peptide Signal Retention in IVD” value in data set [1] (48 Hours) is on record as 34.86. Also, the “Peptide Signal Retention in Knee” value in data set [1] (0.08 Hours) turned out to be 79.20; in data set [1] (0.5 Hours) it was 110.57; in data set [1] (1 Hours), 100.00; in data set [1] (3 Hours) it was 103.00; in data set [1] (8 Hours), 98.94; in data set [1] (24 Hours), 44.60. The “Peptide Signal Retention in Knee” value in data set [1] (48 Hours) worked out at 29.30. For the same sequence, the joint retention entry in data set [1] is on record as “Longer joint retention”. In addition, the “levels in knee and IVD compared with peptide(SEQ ID NO: 105)” value in data set [2] is reported as “substantially higher levels”.
